Assay results: patent publication US20130323282A1

What was measured:
[1] = molecular target: CD81 MBP-LEL113-201 (maltose-binding protein linked to the CD81 large extracellular loop, residues 113 to 201), dimeric form (UniProt P60033); assay: SPR; 1:1 model for dimer/trimer, two-state model for monomer
[2] = molecular target: CD81 MBP-LEL113-201 (maltose-binding protein linked to the CD81 large extracellular loop, residues 113 to 201), dimeric form (UniProt P60033); assay: SPR; 1:1 Langmuir model

Sequence of UniProt P60033 (P60033 113-201 limits assumed): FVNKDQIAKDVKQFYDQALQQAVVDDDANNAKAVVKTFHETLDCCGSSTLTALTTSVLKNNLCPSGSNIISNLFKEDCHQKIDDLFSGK

## H77c WT E2661-his, dimer (from UniProt P27958 384-661) (ligand)
[1]
  fold higher affinity than the monomeric protein: 10 fold

## H77c WT E2661-his, trimer (putative) (from UniProt P27958 384-661) (ligand)
[1]
  fold higher affinity than the monomeric protein: 10 fold

## H77c ΔHVR1+2+3 E2661-his, dimer (from UniProt P27958 384-661) (ligand)
[1]
  fold higher affinity than the monomeric protein: 10 fold
[2]
  fold higher affinity than the WT dimer: 2 fold

## H77c ΔHVR1+2+3 E2661-his, trimer (putative) (from UniProt P27958 384-661) (ligand)
[1]
  fold higher affinity than the monomeric protein: 10 fold
